From patent US20190185865A1, “USE OF PROKARYOTIC TRANSCRIPTIONAL ACTIVATORS AS METABOLITE BIOSENSORS IN EUKARYOTIC CELLS” (Danmarks Tekniske Universitet, priority 2016, published 2019)
Like-named read-outs stand apart in the source and are kept apart here.

Legend:
209 bp_CYC1p_T1 promoter = experiment: LTTR-mediated activation of GFP expression from 209 bp_CYC1p_T1 reporter promoter in yeast, without ligand; format: cell-based, Saccharomyces cerevisiae; details: LTTR expressed from strong TDH3 promoter
Description: (§1) Events were analyzed using FlowJo software (TreeStar Inc.).
The genetic device developed in this study represents to the best of our knowledge the first example of transplanting a prokaryotic transcriptional activator into a eukaryotic chassis and successfully using it to activate gene expression without the need for modifying the protein beyond codon optimization. […] To test the generality of the biosensor design for onboarding other small-molecule binding transcriptional activators as biosensors in yeast we selected four other candidates from the LTTR family; FdeR from Herbaspirillum seropedicae, PcaQ from Sinorhizobium meliloti, ArgP from Escherichia coli, and MdcR from Klebsiella pneumonia, with co-inducers naringenin, protocatechuic acid (PCA), L-arginine, and malonic acid, respectively. In this proof-of-principle study we selected the four candidates based on a minimal set of information, including knowledge about operator sequences, experimental evidence for ligand-inducible control of target operons, and their mode-of-action within native chassis (ie. activation, FIG. 1). Furthermore all of these metabolites can passively diffuse across the yeast plasma membrane, with the exception of malonic acid, which requires the expression of the dicarboxylic acid transporter MAE1 from Schizosaccharomyces pombe. […]

[1] = system: CYC1 promoter with BenM operator (BenO); details: BenM from TEF1 promoter
Description: Cells grown for 24 h in control (mineral medium, pH 4.5) or inducing medium (mineral medium pH 4.5+1.4 mM CCM, 1.4 mM protocatechuic acid, 10 mM malonic acid, 0.2 mM naringenin, or 50 mM L-arginine) were diluted into PBS to arrest cell growth. Cells were then analyzed by flow cytometry using a Fortessa flow cytometer (Becton Dickinson) with a blue laser (488 nm), for validation of single strains. For each strain 10,000 single-cell events were recorded. Events were analyzed using FlowJo software (TreeStar Inc.). The fluorescence arithmetic mean of the gated cell population was calculated, and the fold-change determined by dividing the mean fluorescence of the induced (ON) state with the mean fluorescence of the control (OFF) state. For flow cytometry for CCM and naringenin producing cells we tested mean fluorescence intensities from 10,000 cells pr. strain following 72 and 48 h, respectively. The data represent the average of three (n=3) biological replicates and error bars correspond to the standard deviation between these measurements.
Initially, BenO was introduced into the 491 bp CYC1 promoter immediately upstream of one of the two TATA boxes—TATA-1β (designated 491 bp_CYC1p_BenO_T1) or TATA-2α (designated 491 bp_CYC1p_BenO_T2), or upstream of both (designated 491 bp_CYC1p_BenO_T1/T2)(FIG. 2a). Outputs from these engineered promoters were compared by flow cytometry to expression from the native CYC1p (491 bp_CYC1p) using GFP as the reporter (FIG. 1a and FIG. 2a).

[2] = system: BenO-containing human cytomegalovirus (CMV) promoter; details: 24 h, GFP normalized by RFP; p<0.05 (t-test)
Description: CHO cells were transfected with a plasmid with the BenO-containing human cytomegalovirus (CMV) promoter controlling the expression of GFP as well as an empty vector (− BenM) or a vector expressing BenM (+ BenM). Total GFP expression was measured after 24 h, and normalized by total RFP expression. Average and standard deviation are based on three biological replicates. *; p<0.05 (t-test).
For testing the reporter promoter design with other promoter backbones AND in another eukaryotes, Chinese hamster ovary cells was transformed using the human cytomegalovirus promoter backbone (CMV) instead of the CYC1 promoter backbone used in yeast.
Just as in the case with the yeast design using CYC1 promoter as a backbone, the present inventors put the binding site (benO) for the prokaryotic transcriptional activator BenM 6 bp upstream of the TATA box the CMV promoter and scored reporter gene activity (GFP fluorescence) in the presence and absence of the transcriptional activator BenM.

BenM [3] = target: T1, BenM (Acinetobacter baylyi, UniProt O68014); experiment: Screening 17 yeast strains with BenO at different positions upstream of TATA1 of 209 bp CYC1p; format: cell-based; set-up: expressed in transfected cells; promoters TDH3p, TEF1p, RNR2p or REV1p; details: BenM from REV1p, 1.4 mM CCM, 24 h
T1 sequence (O68014 whole entry, looked up): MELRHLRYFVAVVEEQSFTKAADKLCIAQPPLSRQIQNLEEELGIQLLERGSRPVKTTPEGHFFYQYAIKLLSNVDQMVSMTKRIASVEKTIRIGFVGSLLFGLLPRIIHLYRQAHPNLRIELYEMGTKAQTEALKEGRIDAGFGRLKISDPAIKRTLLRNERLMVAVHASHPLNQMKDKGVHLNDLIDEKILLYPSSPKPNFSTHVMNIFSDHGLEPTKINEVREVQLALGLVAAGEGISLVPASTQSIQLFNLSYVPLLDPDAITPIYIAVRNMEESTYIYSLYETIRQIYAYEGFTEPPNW
Description: FIG. 14. Screening 17 yeast strains expressing BenM from the REV1p in combination with CYC1p reporter promoter of 209 bp with BenO placed at different positions upstream of TATA1. The fold induction (mean±s.d.) was calculated by dividing mean fluorescence intensity (MFI) in medium with 1.4 mM CCM by the MFI in control medium as measured by flow cytometry after 24 h of growth for three biological replicates.
In addition to this, the present inventors also tested 17 different positions for positioning of the BenM binding site (benO).

BenM [4] = target: T1, BenM; experiment: CCM-induced GFP expression in yeast strains combining BenM expression cassettes and CYC1p reporter promoter variants (flow cytometry); format: cell-based, Saccharomyces cerevisiae; set-up: expressed in transfected cells; host or cells: Saccharomyces cerevisiae CEN.PK113-5A, chromosomal integration; promoters TDH3p, TEF1p, RNR2p or REV1p; details: 30° C. vs 37° C.
Text: Strains, chemicals and media. Saccharomyces cerevisiae CEN.PK102-5B (MATa ura3-52 his3Δ1 leu2-3/112 MAL2-8^c SUC2), CEN.PK113-5A (MATa, trp1 his3Δ1 leu2-3/112 MAL2-8^c SUC2) and CEN.PK113-7D (wild type, MATa MAL2-8^c SUC2) strains were obtained from Peter Kotter (Johann Wolfgang Goethe-University Frankfurt, Germany). In principal any other yeast strains may be used, such as one obtained from public repository EuroScarf. EasyClone plasmids used in this work are described in Jensen, N. B. et al. EasyClone: method for iterative chromosomal integration of multiple genes in Saccharomyces cerevisiae. FEMS Yeast Res. 14, 238-48 (2014). Escherichia coli strain DH5a was used as a host for cloning and plasmid propagation. The chemicals and Pfu TURBO DNA polymerase were commercially obtained (Sigma-Aldrich and Agilent Technologies Inc., respectively). All acids used were >97% in purity. S. cerevisiae cells were grown at 30° C. in synthetic complete medium as well as drop-out media and agar plates were prepared using pre-mixed drop-out powders (Sigma-Aldrich). Mineral medium was freshly prepared as described previously. For all media containing diacids, 1.4 mM of the individual diacids were dissolved in mineral medium and pH adjusted to 4.5 before sterile filtration. […]
as §1

B1: BenM: CCM-inducible LysR-type transcriptional activator from Acinetobacter sp ADP1, codon-optimized for yeast (protein, UniProt O68014 1-304, looked up)
HTH-type transcriptional …: MELRHLRYFVAVVEEQSFTKAADKLCIAQPPLSRQIQNLEEELGIQLLERGSRPVKTTPEGHFFYQYAIKLLSNVDQMVSMTKRIASVEKTIRIGFVGSLLFGLLPRIIHLYRQAHPNLRIELYEMGTKAQTEALKEGRIDAGFGRLKISDPAIKRTLLRNERLMVAVHASHPLNQMKDKGVHLNDLIDEKILLYPSSPKPNFSTHVMNIFSDHGLEPTKINEVREVQLALGLVAAGEGISLVPASTQSIQLFNLSYVPLLDPDAITPIYIAVRNMEESTYIYSLYETIRQIYAYEGFTEPPNW
modifications: codon-optimized for yeast
209 bp_CYC1p_T1 promoter
  activation of GFP expression compared to yeast cells without expression of an LTTR: 8.1 ×
[1]; 491 bp_CYC1p_BenO_T1/T2, no CCM
  induction of expression compared to promoter activity without co-expression of BenM: 5 fold
[1]; 491 bp_CYC1p_BenO_T1, no CCM
  induction of expression compared to promoter activity without co-expression of BenM: 20 fold
[1]; 491 bp_CYC1p_BenO_T2, no CCM
  reduction in expression upon co-expression of BenM: 30%
[1]; native 491 bp CYC1p
  effect of BenM on expression of native CYC1p without BenO: did not increase expression
[2]
  reporter (GFP) expression in CHO with vs without BenM: activates reporter expression
BenM [3]
  response with BenO at 17 different positions upstream of TATA box: Only position 6 upstream of the TATA box gave a significant response
BenM [4]
  dynamic range in output by temperature: higher dynamic range in output at 30 °C compared to 37 °C
